Experimental data taken from paper doi:10.1101/590273, “The structure of an injectisome export gate demonstrates conservation of architecture in the core export gate between flagellar and virulence type three secretion systems” (bioRxiv, 2019).
“And” between values parts separate entries of the source, which are not always exact repeats. Identical values can stand only once.

B1: Shigella flexneri SctR (Spa24) (natural protein)
chain: MLSDMSLIATLSFFTLLPFLVAAGTCYIKFSIVFVMVRNALGLQQVPSNMTLNGIALIMALFVMKPIIEAGYENYLNGPQKFDTISDIVRFSDSGLMEYKQYLKKHTDLELARFFQRSEEENADLKSAENNDYSLFSLLPAYALSEIKDAFKIGFYLYLPFVVVDLVISSILLALGMMMMSPITISVPIKLVLFVALDGWGILSKALIEQYINIPA
notes: Spa24 (SctR), export gate component of the Shigella flexneri virulence type three secretion system; expressed from the complete operon; Five copies stand in the SctR5S4T1 complex
B2: Salmonella enterica serovar Typhimurium FliQ (natural protein)
chain: MTPESVMMMGTEAMKVALALAAPLLLVALITGLIISILQAATQINEMTLSFIPKIVAVFIAIIVAGPWMLNLLLDYVRTLFSNLPYIIG
notes: FliQ, flagellar export gate component of Salmonella enterica serovar Typhimurium; source: expression of the complete operon
B3: Salmonella enterica serovar Typhimurium FliP (natural protein)
chain: QLPGLISQPLAGGGQSWSLSVQTLVFITSLTFLPAILLMMTSFTRIIIVFGLLRNALGTPSAPPNQVLLGLALFLTFFIMSPVIDKIYVDAYQPFSEQKISMQEALDKGAQPLRAFMLRQTREADLALFARLANSGPLQGPEAVPMRILLPAYVTSELKTAFQIGFTIFIPFLIIDLVIASVLMALGMMMVPPATIALPFKLMLFVLVDGWQLLMGSLAQSFYS
notes: FliP, flagellar export gate component of Salmonella enterica serovar Typhimurium; source: expression of the complete operon
B4: Shigella flexneri SctS (Spa9) (natural protein)
chain: MSDIVYMGNKALYLILIFSLWPVGIATVIGLSIGLLQTVTQLQEQTLPFGIKLIGVSISLLLLSGWYGEVLLSFCHEIMFLIKSGV
notes: Spa9 (SctS), export gate component of the Shigella flexneri virulence type three secretion system; expressed from the complete operon; Two to four copies stand in the complexes seen (SctR5S2T1, SctR5S3T1, SctR5S4T1)

Experiments:
[1] = target: T1, Shigella flexneri SctT (Spa29) (Shigella flexneri, UniProt P0A1M6 1-256); assay: cryo-EM structure; SctRST complex co-expressed from one operon and purified by the strep tag on SctT; 0.01% LMNG in TBS (100 mM Tris, 150 mM NaCl, 1 mM EDTA, pH 8), 8.4 mg/ml; single particle cryoEM, RELION-3, 3.5 Å; further 3D classification gives classes with 2, 3 or 4 SctS; details: both partners purified
T1 construct: Spa29 (SctT), export gate component of the Shigella flexneri virulence type three secretion system; expressed from the complete operon; One copy stands in the complex; not shown: dual-strep tag, C-terminal, kept
T1 sequence: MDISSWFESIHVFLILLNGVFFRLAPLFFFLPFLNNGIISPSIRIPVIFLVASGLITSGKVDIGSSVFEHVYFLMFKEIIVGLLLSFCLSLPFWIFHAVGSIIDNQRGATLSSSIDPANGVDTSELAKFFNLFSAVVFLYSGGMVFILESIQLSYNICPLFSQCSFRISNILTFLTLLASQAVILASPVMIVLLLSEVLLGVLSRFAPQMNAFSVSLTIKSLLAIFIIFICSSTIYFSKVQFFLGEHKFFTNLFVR

[2] = target: T2, Salmonella enterica serovar Typhimurium FliR (Salmonella enterica serovar Typhimurium, UniProt P54702 1-264); assay: cryo-EM structure; re-refinement of the original S. Typhimurium FliPQR data (Kuhlen, Abrusci et al. 2018) in RELION-3 with particle polishing and per-particle CTF refinement, 3.65 Å; coordinates remodeled and re-refined; details: both partners purified
T2 construct: FliR, flagellar export gate component of Salmonella enterica serovar Typhimurium; source: expression of the complete operon
T2 sequence: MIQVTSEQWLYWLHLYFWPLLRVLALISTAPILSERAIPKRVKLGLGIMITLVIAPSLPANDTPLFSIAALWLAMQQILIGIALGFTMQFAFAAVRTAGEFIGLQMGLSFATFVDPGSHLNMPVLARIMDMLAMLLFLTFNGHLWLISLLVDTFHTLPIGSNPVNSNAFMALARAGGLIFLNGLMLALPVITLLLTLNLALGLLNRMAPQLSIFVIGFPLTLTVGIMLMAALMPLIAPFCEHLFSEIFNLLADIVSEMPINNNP

[3] = target: the molecule itself; assay: as above
[4] = target: B1; assay: cryo-EM structure; SctRST complex co-expressed from one operon and purified by the strep tag on SctT; 0.01% LMNG in TBS (100 mM Tris, 150 mM NaCl, 1 mM EDTA, pH 8), 8.4 mg/ml; single particle cryoEM, RELION-3, 3.5 Å; further 3D classification gives classes with 2, 3 or 4 SctS; details: both partners purified

## B1
[1]
  binding result: binds

## B2
[2]
  binding result: binds

## B3
[2]
  binding result: binds
[3]
  binding result: binds

## B4
[4]
  binding result: binds
[1]
  stoichiometry N: 4 and 2 and 3
